# Assay results reported in the supplement of paper PMC9112550, “Optimization of the antimicrobial peptide Bac7 by deep mutational scanning” (BMC Biology, 2022).
# Tested on: Escherichia coli TOP10
# Assay: shrunken log2 fold change of peptide-encoding DNA abundance (4.5 h post-induction vs induction); higher = less antimicrobial activity (less host growth inhibition)
# Details: time post-induction: 4.5 h; library: site-saturation at positions 5, 18, 19, 20
# 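Also: peptides expressed intracellularly from a pBAD plasmid library in pooled LB shake-flask culture, induced with 0.3% L-arabinose, DNA abundance read by NGS, three biological replicates, DESeq2 with apeglm shrinkage.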
row,Sequence,shrunken log2 fold change
1,RRIRTRPPRLPRPRPRPRNGPRP,-0.0659
2,RRIRGRPPRLPRPRPRPQNDPRP,0.128
3,RRIRRRPPRLPRPRPRPKCIPRP,-0.019
4,RRIRFRPPRLPRPRPRPHNAPRP,-0.54
5,RRIRSRPPRLPRPRPRPTTYPRP,-0.359
6,RRIRCRPPRLPRPRPRPQPKPRP,0.273
7,RRIRYRPPRLPRPRPRPHNAPRP,-1.21
8,RRIRVRPPRLPRPRPRPQHGPRP,0.14
9,RRIRTRPPRLPRPRPRPDTDPRP,-0.138
10,RRIRLRPPRLPRPRPRPHHTPRP,-0.558
11,RRIRRRPPRLPRPRPRPDILPRP,0.0906
12,RRIRIRPPRLPRPRPRPLFWPRP,-0.145
13,RRIRPRPPRLPRPRPRPRIFPRP,-0.0669
14,RRIRRRPPRLPRPRPRPDPHPRP,0.296
15,RRIRNRPPRLPRPRPRPTPIPRP,0.189
16,RRIRRRPPRLPRPRPRPYEHPRP,-0.0324
17,RRIRYRPPRLPRPRPRPWNNPRP,-0.656
18,RRIRMRPPRLPRPRPRPWDFPRP,0.121
19,RRIRWRPPRLPRPRPRPAIGPRP,0.0325
20,RRIRHRPPRLPRPRPRPDQNPRP,-0.14
21,RRIRTRPPRLPRPRPRPEVYPRP,-0.00166
22,RRIRQRPPRLPRPRPRPFLPPRP,-0.0691
23,RRIRFRPPRLPRPRPRPLGAPRP,0.312
24,RRIRWRPPRLPRPRPRPGAYPRP,0.109
25,RRIRWRPPRLPRPRPRPEPGPRP,0.43

row,Sequence,shrunken log2 fold change
1,RRIRKRPPRLPRPRPRPVTFPRP,-0.126
2,RRIRGRPPRLPRPRPRPIQVPRP,0.118
3,RRIRQRPPRLPRPRPRPQKLPRP,-0.0725
4,RRIRRRPPRLPRPRPRPQNCPRP,-0.275
5,RRIRYRPPRLPRPRPRPHCDPRP,-0.0698
6,RRIRPRPPRLPRPRPRPGLMPRP,0.184
7,RRIRKRPPRLPRPRPRPMNMPRP,-0.0791
8,RRIRARPPRLPRPRPRPVARPRP,0.647
9,RRIRLRPPRLPRPRPRPSFAPRP,-0.067
10,RRIRPRPPRLPRPRPRPHQTPRP,-0.0729
11,RRIRLRPPRLPRPRPRPYMSPRP,-0.0167
12,RRIRNRPPRLPRPRPRPPPGPRP,0.863
13,RRIRPRPPRLPRPRPRPWAQPRP,-0.00768
14,RRIRHRPPRLPRPRPRPQFCPRP,-0.208
15,RRIRMRPPRLPRPRPRPGTAPRP,0.793
16,RRIRIRPPRLPRPRPRPACFPRP,0.199
17,RRIRERPPRLPRPRPRPMMCPRP,-0.0137
18,RRIRFRPPRLPRPRPRPNWSPRP,-0.0531
19,RRIRDRPPRLPRPRPRPCVEPRP,0.111
20,RRIRLRPPRLPRPRPRPSAAPRP,0.419
21,RRIRPRPPRLPRPRPRPSCYPRP,-0.332
22,RRIRGRPPRLPRPRPRPNIVPRP,0.364
23,RRIRKRPPRLPRPRPRPQKGPRP,-0.0581
24,RRIRWRPPRLPRPRPRPAGHPRP,-0.0472
25,RRIRYRPPRLPRPRPRPSFYPRP,-1.06
